Data reported in PMC10576099, “Endothelial discoidin domain receptor 1 senses flow to modulate YAP activation” (Nature Communications, 2023).
Substitutions are numbered along the chain they refer to. Numbers in names are those of the source.

B1: YWHAE-Cherry recombinant protein (natural protein, UniProt P62258 1-255, looked up)
chain: MDDREDLVYQAKLAEQAERYDEMVESMKKVAGMDVELTVEERNLLSVAYKNVIGARRASWRIISSIEQKEENKGGEDKLKMIREYRQMVETELKLICCDILDVLDKHLIPAANTGESKVFYYKMKGDYHRYLAEFATGNDRKEAAENSLVAYKAASDIAMTELPPTHPIRLGLALNFSVFYYEILNSPDRACRLAKAAFDDAIAELDTLSEESYKDSTLIMQLLRDNLTLWTSDMQGDGEEQNKEALQDVEDENQ
notes: YWHAE (14-3-3ε), Uniprot No. P62258; also called recombinant YWHAE protein; source: bought: Dai-An Biotechnology (Wuhan); expressed by E. coli BL21 (DE3), purity >90% by SDS-PAGE; not shown: mCherry, C-terminal, kept
B2: WT DDR1-EGFP co-expressed with mCherry-WT DDR1 (dual-color FRAP) (receptor, human, UniProt Q08345 19-913, looked up)
chain: DADMKGHFDPAKCRYALGMQDRTIPDSDISASSSWSDSTAARHSRLESSDGDGAWCPAGSVFPKEEEYLQVDLQRLHLVALVGTQGRHAGGLGKEFSRSYRLRYSRDGRRWMGWKDRWGQEVISGNEDPEGVVLKDLGPPMVARLVRFYPRADRVMSVCLRVELYGCLWRDGLLSYTAPVGQTMYLSEAVYLNDSTYDGHTVGGLQYGGLGQLADGVVGLDDFRKSQELRVWPGYDYVGWSNHSFSSGYVEMEFEFDRLRAFQAMQVHCNNMHTLGARLPGGVECRFRRGPAMAWEGEPMRHNLGGNLGDPRARAVSVPLGGRVARFLQCRFLFAGPWLLFSEISFISDVVNNSSPALGGTFPPAPWWPPGPPPTNFSSLELEPRGQQPVAKAEGSPTAILIGCLVAIILLLLLIIALMLWRLHWRRLLSKAERRVLEEELTVHLSVPGDTILINNRPGPREPPPYQEPRPRGNPPHSAPCVPNGSALLLSNPAYRLLLATYARPPRGPGPPTPAWAKPTNTQAYSGDYMEPEKPGAPLLPPPPQNSVPHYAEADIVTLQGVTGGNTYAVPALPPGAVGDGPPRVDFPRSRLRFKEKLGEGQFGEVHLCEVDSPQDLVSLDFPLNVRKGHPLLVAVKILRPDATKNARNDFLKEVKIMSRLKDPNIIRLLGVCVQDDPLCMITDYMENGDLNQFLSAHQLEDKAAEGAPGDGQAAQGPTISYPMLLHVAAQIASGMRYLATLNFVHRDLATRNCLVGENFTIKIADFGMSRNLYAGDYYRVQGRAVLPIRWMAWECILMGKFTTASDVWAFGVTLWEVLMLCRAQPFGQLTDEQVIENAGEFFRDQGRQVYLSRPPACPQGLYELMLRCWSRESEQRPPFSQLHRFLAEDALNTV
notes: human DDR1, DDR1b isoform, from a plasmid with full-length DDR1b; Two differently tagged copies of the same protein in one cell: each copy has only one of the two fluorescent proteins; The mCherry copy is held by an anti-mCherry polyclonal antibody, the EGFP copy is the one whose mobility is read; also called DDR1 (WT)-GFP; mCherry-DDR1 (WT); source: EA.hy926 ECs, transfected, in living cells; …
B3: locked DDR1-EGFP (D189C/F364C) co-expressed with mCherry-locked DDR1 (dual-color FRAP) (receptor, human, UniProt Q08345 19-913, looked up)
chain: B2 chain with D171C, F346C
notes: human DDR1, DDR1b isoform, DS-like domain locked by two cysteines; Two differently tagged copies of the same mutant in one cell, as for m3; also called DS-like locked mutant; source: EA.hy926 ECs, transfected, in living cells; not shown: EGFP (on one copy); mCherry (on the other copy)

Columns and labels:
[1] = target: T1, DDR1 (416-913aa)-EGFP (human, UniProt Q08345 416-913); test: cell-free droplet (phase separation) assay + turbidity; purified DDR1-C or DDR1-N (5 μM) incubated with varying concentrations of YWHAE-Cherry; 20 mM Tris-HCl pH 7.0, 75 mmol/L KCl, 1 mmol/L DTT, 4 °C 5-10 min, confocal imaging; turbidity at 600 nm with 5% PEG8000; settings: both partners purified
T1 construct: human DDR1 (DDR1b), residues 416-913, containing the transmembrane and cytosolic domains; also called DDR1-C; source: E. coli Transetta (DE3), purified (Ni-NTA)

[2] = target: the molecule itself; test: dual-color FRAP with antibody immobilisation; EA.hy926 ECs co-expressing DDR1-EGFP and mCherry-DDR1, 5 min pre-shear; anti-mCherry polyclonal antibody immobilises the mCherry copy, lateral mobility of the EGFP copy read by FRAP

Row | Binder | binding result [1] | FRAP recovery ratio of the EGFP copy with the mCherry copy immobilised [2]
1 | B1 | binds | –
2 | B2 | – | 49.2 ± 9.6%
3 | B3 | – | 67.6 ± 4%
